Reference: patent publication US20260201008A1, “SECRETIN-DERIVED GLP1R SELECTIVE AGONISTS” (GUBRA A/S, priority 2023, published 2026)
Read-outs that look alike come from different tables or passages of the source. Square brackets hold non-standard residues; d marks the D form. Ends that are not written are not given here. Aib = CC(C)(N)C(=O)O

B1: SEQ ID NO: 217 (peptide)
peptide: H[Aib]EGTFTSDYSRLLEGAALQRFIQWLV-NH2
modifications: N-terminus assumed
SMILES: CC[C@H](C)[C@H](NC(=O)[C@H](Cc1ccccc1)NC(=O)[C@H](CCCNC(=N)N)NC(=O)[C@H](CCC(N)=O)NC(=O)[C@H](CC(C)C)NC(=O)[C@H](C)NC(=O)[C@H](C)NC(=O)CNC(=O)[C@H](CCC(=O)O)NC(=O)[C@H](CC(C)C)NC(=O)[C@H](CC(C)C)NC(=O)[C@H](CCCNC(=N)N)NC(=O)[C@H](CO)NC(=O)[C@H](Cc1ccc(O)cc1)NC(=O)[C@H](CC(=O)O)NC(=O)[C@H](CO)NC(=O)[C@@H](NC(=O)[C@H](Cc1ccccc1)NC(=O)[C@@H](NC(=O)CNC(=O)[C@H](CCC(=O)O)NC(=O)C(C)(C)NC(=O)[C@@H](N)Cc1c[nH]cn1)[C@@H](C)O)[C@@H](C)O)C(=O)N[C@@H](CCC(N)=O)C(=O)N[C@@H](Cc1c[nH]c2ccccc12)C(=O)N[C@@H](CC(C)C)C(=O)N[C@H](C(N)=O)C(C)C
B2: SEQ ID NO: 219 (peptide)
peptide: H[Aib]EGTFTSDWSRLLEGAALQRFIQWLV-NH2
modifications: N-terminus assumed
SMILES: CC[C@H](C)[C@H](NC(=O)[C@H](Cc1ccccc1)NC(=O)[C@H](CCCNC(=N)N)NC(=O)[C@H](CCC(N)=O)NC(=O)[C@H](CC(C)C)NC(=O)[C@H](C)NC(=O)[C@H](C)NC(=O)CNC(=O)[C@H](CCC(=O)O)NC(=O)[C@H](CC(C)C)NC(=O)[C@H](CC(C)C)NC(=O)[C@H](CCCNC(=N)N)NC(=O)[C@H](CO)NC(=O)[C@H](Cc1c[nH]c2ccccc12)NC(=O)[C@H](CC(=O)O)NC(=O)[C@H](CO)NC(=O)[C@@H](NC(=O)[C@H](Cc1ccccc1)NC(=O)[C@@H](NC(=O)CNC(=O)[C@H](CCC(=O)O)NC(=O)C(C)(C)NC(=O)[C@@H](N)Cc1c[nH]cn1)[C@@H](C)O)[C@@H](C)O)C(=O)N[C@@H](CCC(N)=O)C(=O)N[C@@H](Cc1c[nH]c2ccccc12)C(=O)N[C@@H](CC(C)C)C(=O)N[C@H](C(N)=O)C(C)C
B3: SEQ ID NO: 223 (peptide)
peptide: H[Aib]EGTFTSDLS[Aib]LLEGAALQRFIQWLV-NH2
modifications: N-terminus assumed
SMILES: CC[C@H](C)[C@H](NC(=O)[C@H](Cc1ccccc1)NC(=O)[C@H](CCCNC(=N)N)NC(=O)[C@H](CCC(N)=O)NC(=O)[C@H](CC(C)C)NC(=O)[C@H](C)NC(=O)[C@H](C)NC(=O)CNC(=O)[C@H](CCC(=O)O)NC(=O)[C@H](CC(C)C)NC(=O)[C@H](CC(C)C)NC(=O)C(C)(C)NC(=O)[C@H](CO)NC(=O)[C@H](CC(C)C)NC(=O)[C@H](CC(=O)O)NC(=O)[C@H](CO)NC(=O)[C@@H](NC(=O)[C@H](Cc1ccccc1)NC(=O)[C@@H](NC(=O)CNC(=O)[C@H](CCC(=O)O)NC(=O)C(C)(C)NC(=O)[C@@H](N)Cc1c[nH]cn1)[C@@H](C)O)[C@@H](C)O)C(=O)N[C@@H](CCC(N)=O)C(=O)N[C@@H](Cc1c[nH]c2ccccc12)C(=O)N[C@@H](CC(C)C)C(=O)N[C@H](C(N)=O)C(C)C
B4: SEQ ID NO: 224 (peptide)
peptide: H[Aib]EGTFTSDLSELLEGAALQRFIQWLV-NH2
modifications: N-terminus assumed
SMILES: CC[C@H](C)[C@H](NC(=O)[C@H](Cc1ccccc1)NC(=O)[C@H](CCCNC(=N)N)NC(=O)[C@H](CCC(N)=O)NC(=O)[C@H](CC(C)C)NC(=O)[C@H](C)NC(=O)[C@H](C)NC(=O)CNC(=O)[C@H](CCC(=O)O)NC(=O)[C@H](CC(C)C)NC(=O)[C@H](CC(C)C)NC(=O)[C@H](CCC(=O)O)NC(=O)[C@H](CO)NC(=O)[C@H](CC(C)C)NC(=O)[C@H](CC(=O)O)NC(=O)[C@H](CO)NC(=O)[C@@H](NC(=O)[C@H](Cc1ccccc1)NC(=O)[C@@H](NC(=O)CNC(=O)[C@H](CCC(=O)O)NC(=O)C(C)(C)NC(=O)[C@@H](N)Cc1c[nH]cn1)[C@@H](C)O)[C@@H](C)O)C(=O)N[C@@H](CCC(N)=O)C(=O)N[C@@H](Cc1c[nH]c2ccccc12)C(=O)N[C@@H](CC(C)C)C(=O)N[C@H](C(N)=O)C(C)C
B5: SEQ ID NO: 225 (peptide)
peptide: H[Aib]EGTFTSDLSFLLEGAALQRFIQWLV-NH2
modifications: N-terminus assumed
SMILES: CC[C@H](C)[C@H](NC(=O)[C@H](Cc1ccccc1)NC(=O)[C@H](CCCNC(=N)N)NC(=O)[C@H](CCC(N)=O)NC(=O)[C@H](CC(C)C)NC(=O)[C@H](C)NC(=O)[C@H](C)NC(=O)CNC(=O)[C@H](CCC(=O)O)NC(=O)[C@H](CC(C)C)NC(=O)[C@H](CC(C)C)NC(=O)[C@H](Cc1ccccc1)NC(=O)[C@H](CO)NC(=O)[C@H](CC(C)C)NC(=O)[C@H](CC(=O)O)NC(=O)[C@H](CO)NC(=O)[C@@H](NC(=O)[C@H](Cc1ccccc1)NC(=O)[C@@H](NC(=O)CNC(=O)[C@H](CCC(=O)O)NC(=O)C(C)(C)NC(=O)[C@@H](N)Cc1c[nH]cn1)[C@@H](C)O)[C@@H](C)O)C(=O)N[C@@H](CCC(N)=O)C(=O)N[C@@H](Cc1c[nH]c2ccccc12)C(=O)N[C@@H](CC(C)C)C(=O)N[C@H](C(N)=O)C(C)C
B6: SEQ ID NO: 226 (peptide)
peptide: H[Aib]EGTFTSDLSGLLEGAALQRFIQWLV-NH2
modifications: N-terminus assumed
SMILES: CC[C@H](C)[C@H](NC(=O)[C@H](Cc1ccccc1)NC(=O)[C@H](CCCNC(=N)N)NC(=O)[C@H](CCC(N)=O)NC(=O)[C@H](CC(C)C)NC(=O)[C@H](C)NC(=O)[C@H](C)NC(=O)CNC(=O)[C@H](CCC(=O)O)NC(=O)[C@H](CC(C)C)NC(=O)[C@H](CC(C)C)NC(=O)CNC(=O)[C@H](CO)NC(=O)[C@H](CC(C)C)NC(=O)[C@H](CC(=O)O)NC(=O)[C@H](CO)NC(=O)[C@@H](NC(=O)[C@H](Cc1ccccc1)NC(=O)[C@@H](NC(=O)CNC(=O)[C@H](CCC(=O)O)NC(=O)C(C)(C)NC(=O)[C@@H](N)Cc1c[nH]cn1)[C@@H](C)O)[C@@H](C)O)C(=O)N[C@@H](CCC(N)=O)C(=O)N[C@@H](Cc1c[nH]c2ccccc12)C(=O)N[C@@H](CC(C)C)C(=O)N[C@H](C(N)=O)C(C)C
B7: SEQ ID NO: 227 (peptide)
peptide: H[Aib]EGTFTSDLSVLLEGAALQRFIQWLV-NH2
modifications: N-terminus assumed
SMILES: CC[C@H](C)[C@H](NC(=O)[C@H](Cc1ccccc1)NC(=O)[C@H](CCCNC(=N)N)NC(=O)[C@H](CCC(N)=O)NC(=O)[C@H](CC(C)C)NC(=O)[C@H](C)NC(=O)[C@H](C)NC(=O)CNC(=O)[C@H](CCC(=O)O)NC(=O)[C@H](CC(C)C)NC(=O)[C@H](CC(C)C)NC(=O)[C@@H](NC(=O)[C@H](CO)NC(=O)[C@H](CC(C)C)NC(=O)[C@H](CC(=O)O)NC(=O)[C@H](CO)NC(=O)[C@@H](NC(=O)[C@H](Cc1ccccc1)NC(=O)[C@@H](NC(=O)CNC(=O)[C@H](CCC(=O)O)NC(=O)C(C)(C)NC(=O)[C@@H](N)Cc1c[nH]cn1)[C@@H](C)O)[C@@H](C)O)C(C)C)C(=O)N[C@@H](CCC(N)=O)C(=O)N[C@@H](Cc1c[nH]c2ccccc12)C(=O)N[C@@H](CC(C)C)C(=O)N[C@H](C(N)=O)C(C)C
B8: SEQ ID NO: 228 (peptide)
peptide: H[Aib]EGTFTSDLSWLLEGAALQRFIQWLV-NH2
modifications: N-terminus assumed
SMILES: CC[C@H](C)[C@H](NC(=O)[C@H](Cc1ccccc1)NC(=O)[C@H](CCCNC(=N)N)NC(=O)[C@H](CCC(N)=O)NC(=O)[C@H](CC(C)C)NC(=O)[C@H](C)NC(=O)[C@H](C)NC(=O)CNC(=O)[C@H](CCC(=O)O)NC(=O)[C@H](CC(C)C)NC(=O)[C@H](CC(C)C)NC(=O)[C@H](Cc1c[nH]c2ccccc12)NC(=O)[C@H](CO)NC(=O)[C@H](CC(C)C)NC(=O)[C@H](CC(=O)O)NC(=O)[C@H](CO)NC(=O)[C@@H](NC(=O)[C@H](Cc1ccccc1)NC(=O)[C@@H](NC(=O)CNC(=O)[C@H](CCC(=O)O)NC(=O)C(C)(C)NC(=O)[C@@H](N)Cc1c[nH]cn1)[C@@H](C)O)[C@@H](C)O)C(=O)N[C@@H](CCC(N)=O)C(=O)N[C@@H](Cc1c[nH]c2ccccc12)C(=O)N[C@@H](CC(C)C)C(=O)N[C@H](C(N)=O)C(C)C
B9: SEQ ID NO: 229 (peptide)
peptide: H[Aib]EGTFTSDLSYLLEGAALQRFIQWLV-NH2
modifications: N-terminus assumed
SMILES: CC[C@H](C)[C@H](NC(=O)[C@H](Cc1ccccc1)NC(=O)[C@H](CCCNC(=N)N)NC(=O)[C@H](CCC(N)=O)NC(=O)[C@H](CC(C)C)NC(=O)[C@H](C)NC(=O)[C@H](C)NC(=O)CNC(=O)[C@H](CCC(=O)O)NC(=O)[C@H](CC(C)C)NC(=O)[C@H](CC(C)C)NC(=O)[C@H](Cc1ccc(O)cc1)NC(=O)[C@H](CO)NC(=O)[C@H](CC(C)C)NC(=O)[C@H](CC(=O)O)NC(=O)[C@H](CO)NC(=O)[C@@H](NC(=O)[C@H](Cc1ccccc1)NC(=O)[C@@H](NC(=O)CNC(=O)[C@H](CCC(=O)O)NC(=O)C(C)(C)NC(=O)[C@@H](N)Cc1c[nH]cn1)[C@@H](C)O)[C@@H](C)O)C(=O)N[C@@H](CCC(N)=O)C(=O)N[C@@H](Cc1c[nH]c2ccccc12)C(=O)N[C@@H](CC(C)C)C(=O)N[C@H](C(N)=O)C(C)C

Legend:
Experiment in all cases: cell-based or functional assay
[1] = target: T1, human secretin receptor (hSCTR) (human, UniProt P47872 23-440)
T1 sequence (P47872 23-440): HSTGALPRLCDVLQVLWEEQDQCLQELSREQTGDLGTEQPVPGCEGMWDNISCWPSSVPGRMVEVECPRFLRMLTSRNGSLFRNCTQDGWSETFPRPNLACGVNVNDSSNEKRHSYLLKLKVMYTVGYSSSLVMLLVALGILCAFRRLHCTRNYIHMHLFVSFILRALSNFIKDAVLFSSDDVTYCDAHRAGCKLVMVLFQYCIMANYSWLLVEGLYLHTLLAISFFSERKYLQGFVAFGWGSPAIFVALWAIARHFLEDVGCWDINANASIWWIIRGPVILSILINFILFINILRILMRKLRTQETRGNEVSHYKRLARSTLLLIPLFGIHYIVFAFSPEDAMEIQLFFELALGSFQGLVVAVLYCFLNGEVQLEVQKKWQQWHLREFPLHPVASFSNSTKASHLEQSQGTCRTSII

[2] = target: human GLP-1 receptor (hGLP1R) (human, UniProt P43220 24-463)
[3] = target: T1, human secretin receptor (hSCTR); remark: listed apart in the source

Row | Binder | pEC50 hSCTR [1] | pEC50 hGLPR1 [2] | pEC50 hSCTR [3]
1 | B1 | 8.8 -log M | – | –
2 | B2 | 8.2 -log M | – | –
3 | B3 | – | 10.2 -log M | 8.3 -log M
4 | B4 | – | 10.9 -log M | 8.8 -log M
5 | B5 | – | 10.6 -log M | 8.1 -log M
6 | B6 | – | 10.5 -log M | 8.3 -log M
7 | B7 | – | 10.5 -log M | 8.9 -log M
8 | B8 | – | 10.8 -log M | 9.1 -log M
9 | B9 | – | 10.8 -log M | 8 -log M
